In test [1] the target is T1, FcγRIIb (human, UniProt P31994 43-217).
T1 construct: extracellular domain; also called FcgRIIb; 2b; not shown: His tag at the C terminus
T1 sequence (looked up): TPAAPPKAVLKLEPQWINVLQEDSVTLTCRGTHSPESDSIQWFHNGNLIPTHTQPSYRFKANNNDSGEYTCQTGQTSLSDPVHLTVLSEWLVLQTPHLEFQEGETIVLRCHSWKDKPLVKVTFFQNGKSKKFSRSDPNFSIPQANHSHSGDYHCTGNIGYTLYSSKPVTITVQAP
The test can be described thus: SPR (Biacore), captured antibody, soluble FcγR; relative to GpH7-A5/GpH7-B3/GpL16-k0.

The target of test [2] is T2, FcγRIa (human, UniProt P12314 16-292).
T2 construct: extracellular domain; also called FcgRI; 1a; not shown: His tag at the C terminus
T2 sequence (P12314 16-292): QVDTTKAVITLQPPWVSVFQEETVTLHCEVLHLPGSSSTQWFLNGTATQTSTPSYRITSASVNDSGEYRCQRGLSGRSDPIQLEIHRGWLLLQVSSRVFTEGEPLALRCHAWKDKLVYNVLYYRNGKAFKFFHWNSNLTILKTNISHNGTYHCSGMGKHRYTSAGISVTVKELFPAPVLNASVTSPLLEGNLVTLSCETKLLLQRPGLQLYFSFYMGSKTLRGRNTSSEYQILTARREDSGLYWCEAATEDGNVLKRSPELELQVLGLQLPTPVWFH
The description is as above.

The target in test [3] is T2, FcγRIa. The test is described as follows: SPR; He/Con_1a divided by He/Con_2b (FcγRIIb as reference).
The target of test [4] is T3, FcγRIIb extracellular domain with C-terminal His tag (human, UniProt P31994 43-217).
T3 construct: extracellular domain; Expressed in FreeStyle293 cells; analyte in the Biacore assay; also called FcgRIIb; 2b; not shown: His tag at the C terminus
T3 sequence (looked up): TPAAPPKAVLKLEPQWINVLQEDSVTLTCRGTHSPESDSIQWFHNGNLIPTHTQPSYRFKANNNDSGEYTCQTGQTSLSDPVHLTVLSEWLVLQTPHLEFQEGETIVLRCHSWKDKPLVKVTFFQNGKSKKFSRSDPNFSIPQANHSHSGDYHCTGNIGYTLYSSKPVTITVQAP
The test is described as follows: SPR (Biacore), antibody captured on antigen-peptide chip, FcγR as analyte; relative binding.

Test [5] deals with T4, FcγRIa extracellular domain with C-terminal His tag (human, UniProt P12314 16-292).
T4 construct: extracellular domain; Expressed in FreeStyle293 cells; analyte in the Biacore assay; also called FcgRI; 1a; not shown: His tag at the C terminus
T4 sequence (P12314 16-292): as the sequence (P12314 16-292) above
Described as above.

B1: GpH7-A5/GpH7-B3 variant V266_01G/GpL16-k0 (antibody, human IgG1, kappa)
heavy 1: not shown
heavy 2: not shown
light: DIVMTQSPLSLPVTPGEPASISCQASESLVHSNRNTYLHWYLQKPGQSPQLLIYKVSNRFSGVPDRFSGSGSGTDFTLKISRVEAEDVGVYYCSQNTHVPPTFGQGTKVEIERTVAAPSVFIFPPSDEQLKSGTASVVCLLNNFYPREAKVQWKVDNALQSGNSQESVTEQDSKDSTYSLSSTLTLSKADYEKHKVYACEVTHQGLSSPVTKSFNRGEC
notes: He Ab: mutation only in the GpH7-B3 H chain; EU numbering; also called He Ab
On to B1, for which the He/Con_2b in test [1] is 51.5 relative, HeCon Ab = 100. In test [2], the He/Con_1a was 91.3 relative, HeCon Ab = 100. Also, the “Ia/IIb He_1a/2b” value in test [3] was 1.77 ratio.

B2: GpH7-A5/GpH7-B3 variant E269_01G/GpL16-k0 (He Ab) (antibody, human IgG1, kappa)
heavy 1: not shown
heavy 2: not shown
light: DIVMTQSPLSLPVTPGEPASISCQASESLVHSNRNTYLHWYLQKPGQSPQLLIYKVSNRFSGVPDRFSGSGSGTDFTLKISRVEAEDVGVYYCSQNTHVPPTFGQGTKVEIERTVAAPSVFIFPPSDEQLKSGTASVVCLLNNFYPREAKVQWKVDNALQSGNSQESVTEQDSKDSTYSLSSTLTLSKADYEKHKVYACEVTHQGLSSPVTKSFNRGEC
notes: Heterodimerized anti-glypican-3 IgG1; the mutation stands in the GpH7-B3 chain only
With B2, in test [4], the He/Con_2b is 51.5 % of GpH7-A5/GpH7-B3/GpL16-k0 (=100). Besides, the He/Con_1a in test [5] was 104 % of GpH7-A5/GpH7-B3/GpL16-k0 (=100).

B3: GpH7-A5/GpH7-B3 variant E269_02A/GpL16-k0 (He Ab) (antibody, human IgG1, kappa)
heavy 1: not shown
heavy 2: not shown
light: DIVMTQSPLSLPVTPGEPASISCQASESLVHSNRNTYLHWYLQKPGQSPQLLIYKVSNRFSGVPDRFSGSGSGTDFTLKISRVEAEDVGVYYCSQNTHVPPTFGQGTKVEIERTVAAPSVFIFPPSDEQLKSGTASVVCLLNNFYPREAKVQWKVDNALQSGNSQESVTEQDSKDSTYSLSSTLTLSKADYEKHKVYACEVTHQGLSSPVTKSFNRGEC
notes: as for B2
Regarding B3, in test [4], the He/Con_2b was 49.9 % of GpH7-A5/GpH7-B3/GpL16-k0 (=100). Besides, in test [5], the He/Con_1a was 104 % of GpH7-A5/GpH7-B3/GpL16-k0 (=100).

B4: GpH7-A5/GpH7-B3 variant V266_16H/GpL16-k0 (antibody, human IgG1, kappa)
heavy 1: not shown
heavy 2: not shown
light: DIVMTQSPLSLPVTPGEPASISCQASESLVHSNRNTYLHWYLQKPGQSPQLLIYKVSNRFSGVPDRFSGSGSGTDFTLKISRVEAEDVGVYYCSQNTHVPPTFGQGTKVEIERTVAAPSVFIFPPSDEQLKSGTASVVCLLNNFYPREAKVQWKVDNALQSGNSQESVTEQDSKDSTYSLSSTLTLSKADYEKHKVYACEVTHQGLSSPVTKSFNRGEC
notes: as for B1
As to B4, the He/Con_2b in test [1] was 57.2 relative, HeCon Ab = 100. The He/Con_1a in test [2] was 89.1 relative, HeCon Ab = 100. In test [3], the “Ia/IIb He_1a/2b” value is 1.56 ratio.

B5: GpH7-A5/GpH7-B3 variant V266_11K/GpL16-k0 (antibody, human IgG1, kappa)
heavy 1: not shown
heavy 2: not shown
light: DIVMTQSPLSLPVTPGEPASISCQASESLVHSNRNTYLHWYLQKPGQSPQLLIYKVSNRFSGVPDRFSGSGSGTDFTLKISRVEAEDVGVYYCSQNTHVPPTFGQGTKVEIERTVAAPSVFIFPPSDEQLKSGTASVVCLLNNFYPREAKVQWKVDNALQSGNSQESVTEQDSKDSTYSLSSTLTLSKADYEKHKVYACEVTHQGLSSPVTKSFNRGEC
notes: as for B1
As to B5, in test [1], the He/Con_2b was 1 relative, HeCon Ab = 100. In test [2], the He/Con_1a was 64.4 relative, HeCon Ab = 100. Moreover, the “Ia/IIb He_1a/2b” value in test [3] came out at 63.5 ratio.

B6: GpH7-A5/GpH7-B3 variant V266_10E/GpL16-k0 (antibody, human IgG1, kappa)
heavy 1: not shown
heavy 2: not shown
light: DIVMTQSPLSLPVTPGEPASISCQASESLVHSNRNTYLHWYLQKPGQSPQLLIYKVSNRFSGVPDRFSGSGSGTDFTLKISRVEAEDVGVYYCSQNTHVPPTFGQGTKVEIERTVAAPSVFIFPPSDEQLKSGTASVVCLLNNFYPREAKVQWKVDNALQSGNSQESVTEQDSKDSTYSLSSTLTLSKADYEKHKVYACEVTHQGLSSPVTKSFNRGEC
notes: as for B1
Turning to B6, the He/Con_2b in test [1] was 15.2 relative, HeCon Ab = 100. In addition, the He/Con_1a in test [2] is 81.9 relative, HeCon Ab = 100. For the same molecule, the “Ia/IIb He_1a/2b” value in test [3] came to 5.37 ratio.

B7: GpH7-A5/GpH7-B3 variant E269_05P/GpL16-k0 (He Ab) (antibody, human IgG1, kappa)
heavy 1: not shown
heavy 2: not shown
light: DIVMTQSPLSLPVTPGEPASISCQASESLVHSNRNTYLHWYLQKPGQSPQLLIYKVSNRFSGVPDRFSGSGSGTDFTLKISRVEAEDVGVYYCSQNTHVPPTFGQGTKVEIERTVAAPSVFIFPPSDEQLKSGTASVVCLLNNFYPREAKVQWKVDNALQSGNSQESVTEQDSKDSTYSLSSTLTLSKADYEKHKVYACEVTHQGLSSPVTKSFNRGEC
notes: as for B2
As to B7, the He/Con_2b in test [4] is 52.6 % of GpH7-A5/GpH7-B3/GpL16-k0 (=100). In addition, the He/Con_1a in test [5] is 102 % of GpH7-A5/GpH7-B3/GpL16-k0 (=100).

B8: GpH7-A5/GpH7-B3 variant E269_04F/GpL16-k0 (He Ab) (antibody, human IgG1, kappa)
heavy 1: not shown
heavy 2: not shown
light: DIVMTQSPLSLPVTPGEPASISCQASESLVHSNRNTYLHWYLQKPGQSPQLLIYKVSNRFSGVPDRFSGSGSGTDFTLKISRVEAEDVGVYYCSQNTHVPPTFGQGTKVEIERTVAAPSVFIFPPSDEQLKSGTASVVCLLNNFYPREAKVQWKVDNALQSGNSQESVTEQDSKDSTYSLSSTLTLSKADYEKHKVYACEVTHQGLSSPVTKSFNRGEC
notes: as for B2
As to B8, the He/Con_2b in test [4] is 45 % of GpH7-A5/GpH7-B3/GpL16-k0 (=100). Further, the He/Con_1a in test [5] is 103 % of GpH7-A5/GpH7-B3/GpL16-k0 (=100).

Source of the values: patent publication US20180155451A1 (published 2018).
